{"source": "paper doi:10.1101/577437", "about": "(bioRxiv, 2019)", "binders": {"B1": {"name": "human RLIP76 RBD (residues 395-517) (domain or fragment)", "chain": "QAGIKEEIRRQEFLLNCLHRDLQGGIKDLSKEERLWEVQRILTALKRKLREAKRQECETKIAQEIASLSKEDVSKEEMNENEEVINILLAQENEILTEQEELLAMEQFLRRQIASEKEEIERL"}}, "target": "T1, RALA (residues 1-183) (UniProt P11233 1-183)", "T1 sequence": "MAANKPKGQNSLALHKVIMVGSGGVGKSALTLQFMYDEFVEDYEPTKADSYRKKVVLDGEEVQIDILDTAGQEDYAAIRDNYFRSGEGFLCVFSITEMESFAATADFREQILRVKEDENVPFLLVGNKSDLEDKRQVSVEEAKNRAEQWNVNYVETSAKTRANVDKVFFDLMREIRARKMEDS", "experiment": "NMR titration", "data": [{"binder": "B1", "values": [{"measurement": "binding result", "value": "binds"}]}]}
